Tests used:
[1] = Production of fucose-containing carbohydrate from different acceptor carbohydrates, wet cells as enzyme source (Example 7); format: biochemical; conditions: conclusion from Table 1
Description: (§1) Escherichia coli DH5α/pHMFT80 obtained in Example 5 was inoculated on 8 ml of LB medium [containing 10 g/l bacto tryptone (manufactured by Difco), 10 g/l yeast extract (manufactured by Difco) and 5 g/l NaCl] containing 50 μg/ml ampicillin in a test tube, and cultured at 30° C. for 12 hours. The culture was inoculated into 8 ml of LB medium containing 50 μg/ml ampicillin, with an inoculum size of 5%, and cultured at 30° C. for 2 hours. Then, isopropyl-β-D-thiogalactopyranoside was added thereto at a final concentration of 1 mmol/l, and further cultured at 30° C. for 8 hours. Wet cells were obtained by centrifuging 1 ml of the culture. Since the wet cells can be stored at −20° C., if necessary, it was able to use them by thawing-prior to use.
(§2) The reaction was carried out at 32° C. for 9 hours in 0.1 ml of a reaction solution composed of the wet cells of Escherichia coli DH5α/pHMFT80 prepared from 1 ml of the culture, 50 mmol/l of a citrate buffer (pH 7.0), 10 mmol/l MnCl2, 10 mmol/l lactose, 10 mmol/l GDP-fucose and 4 g/l Nymeen S-215.
• Column: CarboPAC PA10 • Eluent:. A; H2O, B; 500 mmol/l NaOH • Gradient: Concentration of the eluent B at 0 minute is adjusted to 8% and increased to 20% spending 21 minutes. • Detector: Pulsed amperometry detector
Escherichia coli DH5α/pHMFT80 and Escherichia coli DH5α/pHPFT80 respectively obtained in. […]

[2] = Production of fucosyllactose in the presence or absence of GDP (feedback inhibition, Example 8); format: biochemical; conditions: conclusion from Table 2
Description: as §1, §2
Fucosyllactose was produced in a similar manner described in Example 7 in the presence or absence of 5 mmol/l guanosine 5′-diphosphate (GDP) using lactose as an acceptor carbohydrate.

B1: Helicobacter mustelae-derived α1,2-fucosyltransferase: Protein comprising the amino acid sequence of SEQ ID NO:1, from Helicobacter mustelae ATCC 43772 (protein, listed as Helicobacter mustelae)
chain: MDFKIVQVHGGLGNQMFQYAFAKSLQTHLNIPVLLDTTWFDYGNRELGLHLFPIDLQCASAQQIAAAHMQNLPRLVRGALRRMGLGRVSKEIVFEYMPELFEPSRIAYFHGYFQDPRYFEDISPLIKQTFTLPHPTEHAEQYSRKLSQILAAKNSVFVHIRRGDYMRLGWQLDISYQLRAIAYMAKRVQNLELFLFCEDLEFVQNLDLGYPFVDMTTRDGAAHWDMMLMQSCKHGIITNSTYSWWAAYLIKNPEKIIIGPSHWIYGNENILCKDWVKIESQFETKS
[1]
  activity compared to Helicobacter pylori-derived α1,2-fucosyltransferase: higher activity
  substrate specificity compared to Helicobacter pylori-derived α1,2-fucosyltransferase: higher substrate specificity to lactose
[2]
  sensitivity to feedback inhibition by GDP compared to Helicobacter pylori-derived α1,2-fucosyltransferase: more insensitive to feedback inhibition by GDP

Reference: patent US7214517B2, “α1,2-fucosyltransferase and DNA encoding the same” (Kyowa Hakko Kogyo Co., Ltd., priority 2001, dated 2007)
